B1: Thioredoxin-dependent peroxide reductase, mitochondrial (Homo sapiens), P30048 (parent)
chain: MAAAVGRLLRASVARHVSAIPWGISATAALRPAACGRTSLTNLLCSGSSQAKLFSTSSSCHAPAVTQHAPYFKGTAVVNGEFKDLSLDDFKGKYLVLFFYPLDFTFVCPTEIVAFSDKANEFHDVNCEVVAVSVDSHFSHLAWINTPRKNGGLGHMNIALLSDLTKQISRDYGVLLEGSGLALRGLFIIDPNGVIKHLSVNDLPVGRSVEETLRLVKAFQYVETHGEVCPANWTPDSPTIKPSPAASKEYFQKVNQ

Variants of: B1
Conditions: with lrrk2_human LRRK2, Q5S007
Chain of lrrk2_human LRRK2, Q5S007 (Q5S007 whole entry): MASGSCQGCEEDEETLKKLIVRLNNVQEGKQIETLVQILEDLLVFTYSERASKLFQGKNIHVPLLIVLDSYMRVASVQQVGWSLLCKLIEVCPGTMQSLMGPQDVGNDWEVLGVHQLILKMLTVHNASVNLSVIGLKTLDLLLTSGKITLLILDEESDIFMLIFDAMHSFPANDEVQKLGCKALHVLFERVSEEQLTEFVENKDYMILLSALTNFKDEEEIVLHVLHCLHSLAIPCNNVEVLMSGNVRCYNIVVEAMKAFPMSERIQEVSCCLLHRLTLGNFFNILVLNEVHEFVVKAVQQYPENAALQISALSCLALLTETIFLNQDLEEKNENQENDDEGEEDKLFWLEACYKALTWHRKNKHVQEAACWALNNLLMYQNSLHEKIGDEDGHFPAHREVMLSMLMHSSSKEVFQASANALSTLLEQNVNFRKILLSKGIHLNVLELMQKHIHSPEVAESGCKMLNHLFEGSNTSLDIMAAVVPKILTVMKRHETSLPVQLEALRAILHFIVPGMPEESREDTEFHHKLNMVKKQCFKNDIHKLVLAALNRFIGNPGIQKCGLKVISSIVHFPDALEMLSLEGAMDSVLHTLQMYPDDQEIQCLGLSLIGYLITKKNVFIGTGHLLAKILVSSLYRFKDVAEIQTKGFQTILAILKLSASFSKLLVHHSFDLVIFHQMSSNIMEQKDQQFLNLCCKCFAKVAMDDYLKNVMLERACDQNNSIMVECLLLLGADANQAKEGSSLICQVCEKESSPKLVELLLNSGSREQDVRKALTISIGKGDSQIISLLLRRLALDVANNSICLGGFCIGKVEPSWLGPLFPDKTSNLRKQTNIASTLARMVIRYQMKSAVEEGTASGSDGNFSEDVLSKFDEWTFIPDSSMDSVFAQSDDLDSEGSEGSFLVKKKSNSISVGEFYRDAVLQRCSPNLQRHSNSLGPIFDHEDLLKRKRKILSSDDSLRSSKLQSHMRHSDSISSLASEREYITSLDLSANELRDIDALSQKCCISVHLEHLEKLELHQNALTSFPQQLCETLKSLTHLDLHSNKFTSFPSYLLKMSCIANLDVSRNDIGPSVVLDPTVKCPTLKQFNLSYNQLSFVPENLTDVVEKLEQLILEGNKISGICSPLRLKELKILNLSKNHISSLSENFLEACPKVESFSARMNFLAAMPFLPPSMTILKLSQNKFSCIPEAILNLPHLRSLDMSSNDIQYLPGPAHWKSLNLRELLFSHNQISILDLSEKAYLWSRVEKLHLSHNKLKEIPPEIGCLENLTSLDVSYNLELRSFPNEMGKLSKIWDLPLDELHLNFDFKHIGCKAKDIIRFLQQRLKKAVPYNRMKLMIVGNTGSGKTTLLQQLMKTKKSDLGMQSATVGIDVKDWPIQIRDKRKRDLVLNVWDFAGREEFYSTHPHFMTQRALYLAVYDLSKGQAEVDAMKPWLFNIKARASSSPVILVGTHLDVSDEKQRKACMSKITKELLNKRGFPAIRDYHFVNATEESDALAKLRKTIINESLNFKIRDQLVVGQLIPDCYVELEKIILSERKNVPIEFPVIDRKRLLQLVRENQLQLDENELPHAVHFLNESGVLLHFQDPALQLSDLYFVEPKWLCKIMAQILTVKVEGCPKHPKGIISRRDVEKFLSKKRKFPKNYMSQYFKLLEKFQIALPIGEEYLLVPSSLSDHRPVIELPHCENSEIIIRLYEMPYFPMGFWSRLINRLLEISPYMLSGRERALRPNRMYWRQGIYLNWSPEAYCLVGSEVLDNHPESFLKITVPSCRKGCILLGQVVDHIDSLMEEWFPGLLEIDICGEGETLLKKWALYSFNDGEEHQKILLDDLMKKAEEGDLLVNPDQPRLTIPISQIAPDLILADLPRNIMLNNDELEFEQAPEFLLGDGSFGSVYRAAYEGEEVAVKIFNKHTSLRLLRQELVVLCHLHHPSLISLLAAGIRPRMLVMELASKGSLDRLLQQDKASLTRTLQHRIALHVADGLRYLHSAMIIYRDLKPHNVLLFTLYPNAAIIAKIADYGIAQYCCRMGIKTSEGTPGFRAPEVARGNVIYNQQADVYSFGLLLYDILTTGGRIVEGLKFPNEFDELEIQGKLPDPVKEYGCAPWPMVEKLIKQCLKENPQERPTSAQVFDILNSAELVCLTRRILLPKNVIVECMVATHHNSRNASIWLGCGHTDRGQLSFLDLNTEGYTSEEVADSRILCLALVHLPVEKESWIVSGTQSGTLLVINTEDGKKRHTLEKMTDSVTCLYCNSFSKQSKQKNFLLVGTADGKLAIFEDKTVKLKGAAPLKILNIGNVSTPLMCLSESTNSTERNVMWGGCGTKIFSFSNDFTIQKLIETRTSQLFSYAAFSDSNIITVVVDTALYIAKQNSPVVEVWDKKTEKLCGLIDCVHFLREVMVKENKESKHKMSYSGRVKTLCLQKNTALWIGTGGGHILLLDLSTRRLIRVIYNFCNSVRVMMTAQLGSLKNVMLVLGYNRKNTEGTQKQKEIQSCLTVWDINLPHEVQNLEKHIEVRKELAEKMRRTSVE

Variant | effect of a mutation on the interaction
T146A | disrupting interaction

— IntAct's records for PubMed 21850687
